# Experimental data from the nanobody polyreactivity screen of Harvey et al. (2022).
# Experiment: yeast display, Sf9 membrane polyspecificity reagent, FACS + sequencing; frameworks hold sequencing errors
# Procedure, shortened: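 Galactose-induced (36–48 hours) yeast carrying a synthetic nanobody display library were exposed to 10% biotinylated, detergent-solubilized Sf9 membrane reagent at 4 °C for 1 hour. FACS followed streptavidin microbead enrichment, using low and high (top ~1%) gates for expression (anti-HA) and reagent binding (streptavidin). Colony PCR, MiSeq 2 × 250 sequencing and CDR-length filtering followed. Labels for polyreactivity reflect the gate of origin.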
row,Sequence,polyreactivity (PSR sort gate)
1,QVQLVESGGGLVQAGGSLRVSCAASGFIFLAYAMGWYSQAPGKERELFAAIDTSGGSTYYADSVKGRFTSTRDNAKNTVYLQMNSLKPEDSAVYYCAADDYDQYYFDYDYWGQGTQVTVSS,low polyreactivity
2,QVQRVESGGGLVQAGGSLRLSCAASGRPFDVYALGGYRQAPGKERELVATITYSGGITYYADSVKGRFTISRDNAKTTVYLQMNSLKPEDTAVYYPIGVGGDYDYWGQGTQVTVSS,low polyreactivity
3,QVQLVESGGGLVQAGGSLRLSCAASGRTFNGYAMGWYRQAPGKERELVAAISSSGSTNYADSVKGRFTISRDNAKNTVYLQMNSLKPEDTAVYYCAAEYYAYESVEYDYWGQGTQVTVSS,low polyreactivity
4,QVQLVESGGGLVQAGGSLRLSCAASGRIPVNAMGWYRQAPVKERELVAAISVSGGSTNYADSVKGRFTISRDNAKNTVYLQMNSLKPEDTAVYYCNADPDWWYPYNYWGQGTQVTLSS,low polyreactivity
5,QVQLVESGGGLVQAGGSLRLSCDASGRTFSSNAMGWYRQAHGKERELVAAISFRGGRTFYADSVKGRFTISRDNAKNTVYLQMNSLKPEDTAVYYCNAVPETRTYDYWGQGTQVTVSS,high polyreactivity
6,QVQHVESGGGLVQAGGSLRLSCAASGRIFWGYEMGWYRQAAGKEREFVAALSSGGGRTYYADSVKGRFTISRDNAKNTVYLQMNSLKPDDSGVYYSNAELNWYYYIHLDYWGQGTQVTVSW,low polyreactivity
7,QVQLVESVGCLVQAGGSHRLSCAASVFIFGANAMGWYRQAPGKESELVAAIRWSSGTTYYADSVKGRFTISRDNAKNTVYLQINSLKPEDTAVYYCAAGGLARTWYAYYYWGQGTQVTVSS,low polyreactivity
8,QVQLVESGGGLVQAGGSLRLSCAASGFTFTSYVMGWYRQAPGKEREFVAAITRSAGGTYYADSVKGRFTISRDNAQNTFYLQINSLKPEDTAVYYCAAEYYVPGGGAYRGDYWGQGTQVTGSS,high polyreactivity
9,QVQLVESGGGLVQAGGSLRLSCAASGSILSQYAMGWYRQAPGKERELVAAITYSGGSTHYADSVKGRFTISRDNAKNTVYLEMNSLKPEDTAVYYCAAKGPRRWGSGLDYWGQGTHVTVSS,low polyreactivity
10,QVQLVESGGGLVQAGGSLRLSCAASGFTFVRNAMGWYRQAPGKEREFVAAITWTGGSTSYADSVKGRFTISRDNAMITVYLQMNSLKPEDTAVYYCDAVGYGYGFEYWGQGTQVTVSA,high polyreactivity
11,QVQLVESGGGLVQAGGRLRLSCAATGSIFRGYAMGWYRQAPGKERELVAAISYRGGSTYYADSVKGRFTISRDNAKNTVYLQMNSLKPEDTAVDYWAAVYSHYWWFDYWGQGTQVTVSS,high polyreactivity
12,QDQLVESGGGLVQAGGSLRLSCAASGRIFHFNAMGWYRQAPGKERELVAAITSSGGSTDYADSVKGRFTISRDTAKNTVYLQMNRLKPEDTADYYCAKRVDAYGWWGRRSGVLSDYWGQGTQVTVSS,low polyreactivity
13,QVQLVESGGGLVQAGGSLRLSCAASGITFVRNAMGWYRQAPGKERELVAAISGRGGITYYADSVKGRFTISRDNAKNTVYLQMNSLKPEDTAVYYCAASSAGSSYNYWGQGTQVTVSS,high polyreactivity
14,QVQLVETGGGLVQAGGSLRLSCAASGGIFSYAMVWYRQAPGKEMELVADINSDGSTTYADSVKGRFTISRDNAKNTVYLQMNRLKPEDTAVYFCAVDVSVNWPLLERYEYWGQGSQVTVSS,low polyreactivity
15,QVQLVESGGGLVQAGGSLRLSCAASGSICYGYTMGWYRQAPGKEREFVAAITGSGGSTYYADSVKGRFTISRDNAKNTVYLQMNSLKPEDTAVYYCAARRYVNRRYDYWGQGTQVTVSS,high polyreactivity
16,QVQLVESGGGLVQAGGSLRLSCAASGSIFTLYAMGWYRQAPGKDRELVATINWSGGSTSYADSGKGRFTISRDNAKNTVYLQMNSLKPEETAVYYCARLGTYTVVTYDYWGQGTQVTVSS,low polyreactivity
17,QVQLVESGGGLVQAGGSLRLSCAASGIIFRNNAMGWYRQAPGKEREFVARISKRGGSTYYADSVKGRFTISRDNAKNTVYLQQNSLKPEDTAVYYCAKGYGSGSYLYDYWGQGTQVTVSS,high polyreactivity
18,QVQIVESGGGLVQAGGSHRLSCAATGLTFKYYAMGWYIQAPGKERELVAAISRSGGSTYYADSVKGRFTISRDNAKNTVYLQKNSLKPEDTAVYYCNARAGRYYSVYYPGDYWGQGTQVTVSS,high polyreactivity
19,QVQLVESGGGLVQAGGSLRLSCAASGSTFYEYAMGWYRQAPGKERELVATINWS,low polyreactivity
20,QVQLVESGGGLVQAGGSLRLSCAASGVTFGGYAMGWYRQAPGKERELVAAISGSGGRTYYADSVKVRFTISRDNAMNTVYLQMNSLKPEDTAVYYCAADRASPYLENYWGQGTQVTVSS,low polyreactivity
21,QVQLVETGRGLVQAGGSLRLSCAASGGTFVVYSMGWYRQAPGTERELVAAITWIGDSTYYADSVKRRFTISRDNAKNTVYVQMNSLNPEDTAVYYCNKAKLYLVGRARFQTNYGLYDFWGQVTQVTVSS,low polyreactivity
22,QVQLVESGGGLVQAGGSLRLSCGASGGTFVSNAMGWYRQAPGKERELVAAITSGCNTTYADSVKGRFTISRDNAKNTVYLQMNSLKPEDTAVYYCATDFEGSWIDARGTWYYVWFGYWGQGTQVTVSS,low polyreactivity

row,Sequence,polyreactivity (PSR sort gate)
1,QVQLVESGGGLVQAGGSLRLSCAASGFISVRNAMGWYRQAPGKEREFVAAISGGGGSTYYADSVKGRFTISRDNAKNTVYLQMNSLKPEDTAVYYCNAPRYLYSAGRFNYWGQGTQVTVSS,high polyreactivity
2,QVQLVESGGGLVQAGGSLRLSCAASGRITFRNAMVWYRQAPGKERELVASITSGGSTYYADSVKGRFTISRDNAKNTVYLQMNSLKPEDTAVYYCAGEGTARTSPPMDYWGQGTQVTVSS,high polyreactivity
3,QVQLVESAGGLVQAGGSLRLSCAASGYTISYANAMGWYRQAPGKERELVASISSTGGRTYYADSVKGRFTISRDNAKNTVYLQMNSLKPEDTAVYYCASRYWRYGYWGQGTQVTVSS,high polyreactivity
4,QVQLVESGGGLVQAGGSLRLSCAASGSTFYGYAMGWYRQAPGKERELVAAISGGGSTNYADSVKGRFTISRDNAKNTVYLQMNSLKPEDTAVYYCAARTTVYRRYGRNYWGQGTQVTVSS,high polyreactivity
5,QVQLVESGGGLVQAGGSLRLSCAASGSTFWYYAMGWYRQAPGKERELVADITYSGVSTYYADSVKGRFTISRDNAKNTVYLQMNSLKPEDTAVYYCNADWGSVNGYSGYYYWGQGTQVTVSS,low polyreactivity
6,QVKLVESGGGLVQAGGSLRLSCAASGRTFGYNAMGWYRQAPGKERELVASINWSGGRTYYADSVKGRFTISRDNAKNTVYLQMYSLKPEDTAVYYCAKGFTRVQQQYQYLFGYWGQGTQVTVSS,low polyreactivity
7,QFQLVYSGGGLVQAGGSLRLSCAASGRTYGIYAMVWYRQAPGKERDLVAAISSDASTSYADSLKGRFTISRDNAKITVYLQMNSLKPEDTAVYYCGADPGTYYEWGYVYWGQGTQVTVSS,low polyreactivity
8,QVQLVESGGGLVQAGGSLRLSCAASGGTFAANDMGWYRQAPGKEREFVAAIDWSGGSTYYADSVKGRFTISRDNAKNTVYLQMNSLKPVDTAVYYCNAGPAVRSAYSTPYYDYWGQGTQVTVSS,low polyreactivity
9,QVQLVESGGGLVQAGGSLRLSCAASGGTFGSYAMGWYRQAPGKERELVAAIDYSGADTYYADSVKGRFTISRDNAKNTVFLQMNSLKPEDTAVYYCNAEFESGHDLDWYDYWGQGTQVTVSS,low polyreactivity
10,QVQLVESGGGLVQAGGSLRLRCAASGRIFREYAMGWYRQAPGKERELVAAITASGGGTYYADSVKGRFTISRDNAKNTVYLQMNSLKPEDTAVYYCAARYSSRTRNDYWGQGTQVTVSS,low polyreactivity
11,QVHLVESGGGLVQAGGSLRLSCAASGRTIHSYAMGWYRQAPGKERELVAAINNGGGTYYADSVKGRFTISRDNAKNTVYLQMNSRKPEDTAVYYCAAATRKRIGSYYYWGQGTQVTVSS,high polyreactivity
12,QVQLVESGGGLVQAGGSLRLSCAASGYTFKAYAMGWNIQAPGKERELVAAISWSGARTYYAYSVKGRFTISRDNAKNTVYLEMNRLKPEYTAVYYCAASNAVYAGRSYRDEYWGQGTQVTVSS,high polyreactivity
13,QVQLVESGGGLVQAGGSLRLSCAASGFTFWLYAMGCYRQAPGKEREFVAAISTSGGSTYADSVKGRFTISRDNAKNTVYLQMNSLKPEDTAVYYCNAGYLLYYDYHLFYWGQGTQVTVSS,low polyreactivity
14,QVQLVESGGGLVQAGGSLRLSFAASGINFRSYTMGWYRQAPGKERELVAGITRSGGSTYYADSVKGRFTISRDNAKNTVYLQMNSLKPEDSAVYYCAAKFRAGRSSYYWGHGTQVTVSS,high polyreactivity
15,QVQLVESGGGLVQAGGSLRFSCAASGSTFGDYTMGWYRQAPGKERELVAAISTSGTITYYADSVKGRFTISRDNAKNTVYLQMNSLKPEDTAVYYCAKLSQYTPVNDGYYWGQGTQVTVSS,low polyreactivity
16,QVQLVESVGGLVQAGGSLRLSCDASGSTFPKYAMGRSRQAPAKEIELVAGISWRGGSTYYADSVKGRFTISRDNAKNTVYLQMNSLKPEDTAVYYCNKYLYYSFQDDYWGQGTQVTVSS,high polyreactivity
17,QVQLVESGGGLVQAGGSLRLSCAASGLIFDVYDMGWYRQAPGKERELVAAISTTGGSTFYADSVKGRFTISRDNAKNTVYLQMYSLKPEDTAVYYCNADWAPTGFSGGYPYDYWGQGTQVTVSS,high polyreactivity
18,QVQLVESGGGLVQAGGSLRLSCAASGRIFYNNAMGWYRQAPGKERELVAGISRSSGRTYYADSVKGRFTISRDIAKNTVYLQMNSLKPEDTAVYYCNTVSWPLSSKYYYWGQGTQVTVSS,high polyreactivity
19,QVQLVESGGGLVQAGGSLRLSCAASGSIFIYNAMGWYRQAPGKERELVAAISSSGGSTYYADSVKGRFTISRDYAKNTVYLQLNSLKPEDTAVYYCAARTYYVRGLGGRPGMDYWGQGTHVTVSS,low polyreactivity
20,QVQLVESGGGLVQAGGSLRLSCAASGRIFKNYAMGWYRQAPGKERELVAAISRSGGRTYYADSVKGRFTISRDNAKNTVYLQMNSLKPEDTAVYYCAADVDYRYSKIYKWTYDYWGQGTQVTVSS,high polyreactivity
21,QVQLVESWGGLVQAGGTLRLSCAASGRILYLNAMGWNRQAPGKEREFVAAISKSGGSTYYADSVKGRFTISRDNAMNSVYLQMNSLKPEDTAVYYCATRYRSAEYDFWGQGTQVTVSS,low polyreactivity
